Measurements: the nanobody polyreactivity screen of Harvey et al. (2022)

Assay: yeast display, Sf9 membrane polyspecificity reagent, FACS + sequencing; frameworks hold sequencing errors
Procedure, shortened: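 Sorting gates, low and high (top ~1%), were placed on anti-HA fluorescence to track expression and on streptavidin fluorescence to track reagent binding. A clone's polyreactivity label is taken from the gate it came out of. The reagent was 10% biotinylated, detergent-solubilized Sf9 membrane, applied for 1 hour at 4 °C to galactose-induced yeast display cells.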

Sequence	polyreactivity (PSR sort gate)
QFQLVESGGGLVQAGGSLRLSCAASGSTFGVYALGWYRQAPGKARELVATINSGGSTNYADSVKRRFTSSRDNAKNTVYLQMTSLTPEDTAVYYCAAGPFWQDFYVYEYDYWGQGTQVTVSS	low polyreactivity
QVQLVESGGGLVQAGGRLRLSCAASGSSSTPYTMGWYRPAPGKERELVAAISWIGDTTSYADSVKGRFTISRDNAKNTVYLQMNSLKPEDTAVYYCNAEHRGYDYWGHGTQVTVSS	low polyreactivity
QVQLVESRGGLVQAGGSLRLSCAASGRTRFYAMGRYIQAPGKERELVAVINASGDSTYYADSVKGRFTISRDNAKITVYLQMNSLKPEDTAVYYCAGDNRGEYDYWGQGTQVTVSS	low polyreactivity
QVQLVESGGGLVKAGGSLRLSCAASGRIFRYYVMGWYRQAPGKERELVASISWRGTSTYYADSVKGRFTISRDNAKNTVYLQMNSLKPEDTAVYYCNAARPGKNYDSWGQGTQVTVSS	high polyreactivity
HVQLEESGGGLVQAGGSLRLSFAASGSIRKYYAMGSYIQAPAKERELDAAISGSGSTTYYADSVKGRFTISRDNAKNTVYLELNSLKPEDTAVYYCAAVYAFGNRYAYGSDSWGQGTQVTVSS	low polyreactivity
QVQIVESGGGLVQAGGSLRLSCDASGRIFTAYAMGWYRQAPGKERELVAAISSGDSTYYAYSVKGRFSISRDNAKNTLYLQMNSLNPEDTEVYYCATCVYPDFEYDSWGQGTQVTVSA	low polyreactivity
QVQLVESGGGLVQAGGSLRLSCAASGSIFSANTMGWYRQAPGNEREFVAGITTSAGRTDYADSVKGRFTISRDNAKNTVYVQMNSLKPEDTAVYYCNADRRYYYHYRRYWYDYWGQGTQVTVSS	high polyreactivity
QVQLVESGGGLVQAGGSLRLSCAASGRTFRYNAMGWYREAPGKERELVAAISTRGGSTYYADSVKGRFTISRDNAKNTVYLQMNSLKPEDTAVYYCAVTRRFPGHFEDYYWGQGTQVTVSS	low polyreactivity
QVQLVESCGGLVQAGGSLRLSCAASGSIFGYNDMGWYRQAPGKERELVATLTWGGGRTRYADSVKGRFTISRDNAKNTVYLQMNSLIPEDTAVDYCAADKRSYSYVRPPRNHEDYWGQGTQVTVSS	low polyreactivity
QVQLVESGGGLVQAAGSLRLSCAASGGTFWFYDMGWYRQAPGKERELVAAINSDGSTYYADSVKGRFTISRDNAKNTVYLQMNSLKPEDTAVYYCAVDQTYVGEGLSEVDVGYWGQGTQVTVSS	low polyreactivity
QVQLVESGGGLVQAGGSLRLSCAASVSIFAYYAMGLYRQAPGKERELVAAISRGGDTNYADSVKGRFTISRDNAKNTVYLQMNSLKPEDTAVSYCAATSYVRGYWYGYWGQGSQVTVSS	high polyreactivity
QVQLVESGGGLVQAGGSLRLSCAASGFNSDWYAMGWSRQAPGKERELVATIDWIGGSTYADSVKGRFTISRDNAKNTVFLQMNSLKPEDTAVYYCAADSYFIAWYGAHYAYDYWGQGTQVTVSS	low polyreactivity
QVQLVESGGGLVQAGGSLRLSCAASGNIFSSNAMGWYRQAPGKERELVAAISASGGNTYYSDSVKGRFTISRDNAKNTVYLQMNSLKPEDTAFYYCNAYRGGYLRRGYYYWGQGTQVTVSS	high polyreactivity
QVQLVESGGGLVQAGGSLRLSCAASGSTFVRYVMGWYRQAPGKERELVAAISRRGGSTYYADSVKGRFTISRDNAKNTVYLQMNSLKPEDTAVYYCARTVGYRTLLESDSWGQGTQVTVSS	high polyreactivity
QVQLVESGGGLVQAGGILRLICAASGSTFPYNAMGWYRQAPGKERELVAAISSGGSTYYADSVNGRFTISRDNAKNTVYLELNSQKPEDTAVYYCAASLGKYIRSLGYGYWGQGTQVTVSS	high polyreactivity
QVQLVESGGGLVQAGGSLLLSCPASGRIFTWYAMGWYRQAPGKERELVAAINYNGDDTYYADSVKGRFTISRDNAKNTVYLQMNSLKPEDTAVYYCAAEGSRPPYDYWGQGTQVTVSS	high polyreactivity
QVQHVESGGGLVQAGGSLRLTCAASGSTSPTNVMGWYRQAPGKERELVAAISYSGGRTYYADSVKGRFTISRDNAKKTVYLQMNSLKPEDTAVYYCAARSLKRKYESWGQGTQVTVSS	high polyreactivity
QVQLVESGGGLVQAGGSLRLSCAASGIIFKSNAMGWSRQAPGKERELVAAIRSSGSTNYADSVKGRFTISRDNAKNTVYLQLNSLKPEDTAVYYCAVSSWSVWGHYYWGQGTQVTVSS	high polyreactivity
QVQLVESGGGLVQAGGSLRLSCAASGSIFHYNAMGWYRQAPGKERELVAAISWRGGTTYYADSVKGRFTISRDNAKNTVYLQMNSLKPEDTAVYYCNRAYVYTYQRRDYDYWGQGTQVTVSS	low polyreactivity
QVQLVESGGGLVQAGGSLRLSCAASGFIFGYYAMGWYRQAPGKERELVAAISKSGTDTYYADSVKGRFTISRDNAKNTVYLQMNSLKPEDTAVYYCNALLRGYSYGYDYWGQGTQVTVSS	high polyreactivity
QVQLEESGGGLVQAGGSLRLSCAASGFTLPLYAMGWYIQAPGKERELVAAISSGGGRTYYADSVKGRFTISPDYEKNSVYLQMNSLKPEDTAVYYCNVDRWWLGRYKFYYWGQGTQVTVSS	high polyreactivity
QVQLVESGGGLVQAGGSLRLSCAASGFIFPYNEMGWYRPAPGKERELGAAITSGSNTYYADSVKGRFTISRDNAKNTVYLQLNSLKPEDTAFYYCAARRRIYRSMGYWGQGSQVTVSS	low polyreactivity

Sequence	polyreactivity (PSR sort gate)
QVQLVESGGGLVQAGGSLRLSCAASGRILSVYAMGWYRQAPGKERELDAGISKRGGRTYYADSVKGRFTISRDNAKNTVYLQMKSLTPEDTAVYYCAADYSSYWGRDYWGQGTQVTVSS	high polyreactivity
QVQLVESGGGLVQAGGSLRLSCAACGFTFQYYAMGWYRQAPGKVRELVATITTSGGNTYYADSVKGRFTISRDNAKNTVYLQMNSLKPEDTAVYYCAARSYRASSRGYVYWGQGTQVTVSS	high polyreactivity
QVQLVESGGGLVQAGGSLRLSCAASGRTFGINAMGWYRPAPGKERELVAAIRTGGSTYYADSVKGRFTISRDNAKNTVYLQMNSLKPEDTAVFYCAAVLYHNRKTEYTYGYWGQGTQVTVSS	high polyreactivity
QVQLVESAGGLVQEGGSLRLSCAASGRTFYNAMGGYRQAPGKERELVAAISANGGSTTYADSVKGRFTISRDNAKNTVYLQMNSLKPEDTAVYYCNTYYWYSGSPYDYWGQGTQVTVSS	low polyreactivity
QVQLVESGGGLVQAGGSLRLSCAASGFTFDVYTMGWYRQAPGKEREFVAAISGSGGSTYYADSVKGRFTISRDNAKNTVYLQMNSLKPEDTAVYYCNAGLSRVSHRHRSHSLQGYDYWGQGTQVTVSS	low polyreactivity
QVLLQESGGGLVQAGGSLRLSCAASGSIFLFYTMGWYRQAPVKEREFVAGITLGTTTYNADSVKGRFTISRDNVKNTVYLQMNSLKPEDTAVYYCAVAVGHYTEFWYWGQGTQVTMSS	high polyreactivity
QVQLVESGGGLVQAGGSLRLSCAASGIISSTNAMGWYRQEPGKERELVAAISGRGSGTYYADSVKGRFTISRDNAKNTVYLQMNRLKPEDTAVYYCAALSNVFQWWFKTNKSRYDYWGQGTQVTVSS	high polyreactivity
QVQLHESGGGLCRRAAASSGAASGTISFLYYMGWYRQAPGQEREFVAGINNGTTTNYADSVKGRFTNSRDNAKNTVYLQMNSLKPEDTAVYYCAVRKPYKATTASGFEYWGQGTQVTVSS	high polyreactivity
EVQLVESGGGLVQAGGSLRLSCAASGFFYPNNAMGWYRQAPGKERELVARISYGGGDTHYADSVKGRFTISRDNAKNTVYLQMNSLKPEDTAVYYCAVKDGQDDYWGQGTQVTVSS	low polyreactivity
QVQLVDSGGGLVQAGGSLSLSCAASGYTFDTNAMGWYRQAPGKERELVAAIDFSGGTTYADSVKGRFTISRDNAKNTVYLQMNSLKPEDTAVYYCSADHSGGSRYDYWGQGTQVTVSS	low polyreactivity
QVQLVESGGGLVQAGGSLRLSCAASGNIFYAYDMGWYRQAPGKERELVAAITNGDSTDYADSVKGRFTISRDNAKNTVYLQMNSLKPEDTAVYYCNADYLPEPWALGGSQYDYWGQGTQVTVSS	low polyreactivity
QVQHVESGGCLVQAGGSRRLSCAASVSIFIPNAMGWSRQAHGKERELVAAISWSGASTYYADSVKRRFTISRDNAKNTVYLQMISLKPEDTAVYYCAAYYAYRRGYDYWGQGTQVTVSS	high polyreactivity
QVQLVESGGGLVQAGGSLRLSCAASGFTFHGYAMGWYRQAPGKERELVAAISSSGGRTYYADSVKGRFTISRDNAKNTVYLQMNSLKPEDPEVYYCAAKARGIYVPDGGYWGQGTQVTVSS	high polyreactivity
QVQLLESGGGLVQAGGSLRLTCAASGSIFFYYAMAWYRQAPGKEMEFVAGITYSGGITYYADSVKGRFTISRDNEKNTVYLQMNSLKPEDTAVYYCDYGGGVYQYGYWGQGTLVTVSS	low polyreactivity
QVQLVESGGGIVQAGGSLRLSCAASGSTIGYYAMGWSRQAPGKERELVAAISRRGGSTYYADSVKGRFTISRDNAKNTVYLQMTSLKPEDTAVYYCAADRRIGDGENYYWGQGTQVTVSS	high polyreactivity
QVQLVESGGGLVQAGGSLRLSCAASGRTFFYNTMGWYRQAPGKERELVARITRGGSTYYADSVKGRFTISRDNAKNSVYLQMNSLKPEDTAVYYCAAGYWRGYFLYGFDYWGQGTQVTVSS	high polyreactivity
QVQLVESGGGLVQAGGSLRLICAASGSTFDVNAMGWYRQAPGKERELVAAISWNSGSTYYADSVKGRFTISRDNAKNTVYLQMNSLKPEDTAVYYCAATYGTGRRSKYGYWGQGTQVTVSS	high polyreactivity
QVQLVESWGGLVQAGGSLRISCAASGFIIDGNAMGWYRQAPGKERELLAAISGDGGSYYADSVKGRFTISRDNAKNSVYLQRNSLKPEDTAVYDCAAEQTQLYSFGWDEYWGQGTQVTVSS	low polyreactivity
QVQLVESGGGLVQAGGSLRLSCAASGLIYTPYAMGWYRQAPGKERELVAAINYGGSRTYYADSVKGRFTISRDNAKNTVYLQMNSLKQEDTAVYYCNKPGNYVWRRSWDFDYWGQGTQVTVSW	high polyreactivity
QVQLVESGGGLVQAGGSLRLSCAASGRILYVNTMGWYRQAPGKERELVAGITSRVGSTYYADSVKGRFTISRDNGKNTVYLQMKSLKPEYTAVYYCNARSTWRHRRDQVDFDYWGQGTQVTVSS	low polyreactivity
QVQLVESGGGLVQAGGSLRLSCAASGSIFYNNAMGWYRQAPGKERELVATISDGGGSTYYADSVKGRFTISRDNAKNTVYLQMNSLKPEDTAVYYCAAPYYWGQGTQVTVSS	low polyreactivity
